Usually stoichiometry N stands for the number of molecules, sites or subunits per partner or assembly.

The target of data set [1] is balifase (Bacillus licheniformis). Put plainly: SEC; size-exclusion chromatography of the purified RNases; molecular weights from the elution profile of marker proteins; column and buffer not told. On the technique in general: Size exclusion chromatography separates by hydrodynamic size, large species first.
Data set [2] has as its target balnase (Bacillus altitudinis). The description is as above.
Data set [3] deals with the molecule itself. The data set is described as above.
Data set [4] deals with the molecule itself. The experiment in a line: dynamic light scattering; Zetasizer Nano ZS; RNase diluted with ultrapure water, filtered, sonicated for 2 min; particle size by volume distribution; ten runs of 30 s.

In the case of balifase (enzyme), the stoichiometry N in data set [1] came out at 2.
For balnase (enzyme), the stoichiometry N in data set [2] was 2.

B1: barnase (enzyme, Bacillus amyloliquefaciens, UniProt P00648 48-157, looked up)
chain: AQVINTFDGVADYLQTYHKLPDNYITKSEAQALGWVASKGNLADVAPGKSIGGDIFSNREGKLPGKSGRTWREADINYTSGFRNSDRILYSSDWLIYKTTDHYQTFTKIR
notes: barnase, guanyl-preferring ribonuclease of Bacillus amyloliquefaciens; also called RNase from B. amyloliquefaciens; source: homogeneous protein preparation, obtained using previously described three-step procedure [19,30]
Turning to B1, in data set [3], the “stoichiometry N” value was found to be 2.

B2: binase (enzyme, Bacillus pumilus, UniProt P00649 54-162, looked up)
chain: AVINTFDGVADYLIRYKRLPDNYITKSQASALGWVASKGNLAEVAPGKSIGGDVFSNREGRLPSASGRTWREADINYVSGFRNADRLVYSSDWLIYKTTDHYATFTRIR
notes: binase, guanyl-preferring ribonuclease of Bacillus pumilus (~12 kDa), N1/T1/U2 family (IPR000026); also called RNase from B. pumilus; source: homogeneous protein preparation, obtained using previously described three-step procedure [19,30]
Turning to B2, the “stoichiometry N” value in data set [4] is 2.

These data come from paper PMC8837141, “Structural and Functional Differences between Homologous Bacterial Ribonucleases” (International Journal of Molecular Sciences, 2022).
